Assay results reported in publication doi:10.1101/2024.07.23.604836.

Molecular target: T1, TLR7-Fc (toll-like receptor 7 ectodomain fused to human Fc) (UniProt Q9NYK1 27-839)
T1 sequence: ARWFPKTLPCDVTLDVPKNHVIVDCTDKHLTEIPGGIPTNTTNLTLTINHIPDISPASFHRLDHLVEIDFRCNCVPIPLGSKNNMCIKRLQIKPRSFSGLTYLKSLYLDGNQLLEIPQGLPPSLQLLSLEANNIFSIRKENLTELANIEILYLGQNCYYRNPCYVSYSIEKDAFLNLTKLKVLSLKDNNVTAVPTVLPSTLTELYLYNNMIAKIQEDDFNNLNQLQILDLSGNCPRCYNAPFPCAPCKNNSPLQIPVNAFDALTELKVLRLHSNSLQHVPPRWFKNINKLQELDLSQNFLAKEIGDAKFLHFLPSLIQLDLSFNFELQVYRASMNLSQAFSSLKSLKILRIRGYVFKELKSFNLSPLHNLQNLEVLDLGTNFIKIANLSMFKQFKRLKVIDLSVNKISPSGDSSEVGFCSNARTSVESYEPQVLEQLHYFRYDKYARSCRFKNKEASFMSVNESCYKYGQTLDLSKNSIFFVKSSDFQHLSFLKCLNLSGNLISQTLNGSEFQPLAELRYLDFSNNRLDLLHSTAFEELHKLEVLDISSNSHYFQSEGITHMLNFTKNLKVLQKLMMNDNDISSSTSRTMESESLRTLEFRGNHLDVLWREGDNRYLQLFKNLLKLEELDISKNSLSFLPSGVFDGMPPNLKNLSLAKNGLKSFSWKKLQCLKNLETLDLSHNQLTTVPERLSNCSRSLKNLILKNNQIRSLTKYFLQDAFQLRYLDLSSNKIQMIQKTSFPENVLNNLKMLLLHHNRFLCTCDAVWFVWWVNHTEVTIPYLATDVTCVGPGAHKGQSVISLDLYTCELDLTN
Experiment: competition

Does GUCUUCAAAACUAGGUCGUUUUAGA (ssRNA, 5' phosphate; 3' biotin) [competitor ssRNA] bind?
Result: binds
